Data on five molecules can be found in PMC3286403.

Several values for one entry are separate records, joined by “and”; a condition that tells them apart may be missing. Equal entries are not always repeated. Where two headings read alike, the source gives them in different places.

In test [1] the target is His6-tagged HIV-1 integrase Y194E (HIV-1). Put plainly: AlphaScreen or HTRF; HTRF; His-IN 80 nM, GST-LEDGF/p75 or GST-TNPO3 5 nM, anti-GST-Europium Cryptate and anti-His-XL665; 25 mM Hepes pH 7.3, 150 mM NaCl, 2 mM MgCl2, 0.1% BSA, 1 mM DTT; read 2 h after incubation; signal as percent of IN WT ΔF. (In general: In Alpha technology, singlet oxygen from a donor bead excites a nearby acceptor bead.)

For test [2], the target named is His6-tagged HIV-1 integrase K188Q (HIV-1). The test is described as above.
For test [3], the target named is His6-tagged HIV-1 integrase W131A (HIV-1). The description is as above.
Test [4] has as its target His6-tagged HIV-1 integrase Q168L (HIV-1). Described as above.
For test [5], the target named is His-tagged HIV-1 integrase Y194A (HIV-1). Described as above.
For test [6], the target named is untagged HIV-1 integrase W131A (HIV-1). Description: SEC; 2.5 μM untagged IN on Superdex 200 10/300 GL; 50 mM HEPES pH 7.4, 750 mM NaCl, 10% glycerol; calibrated with protein standards; no DNA. A general note: In gel filtration, larger molecules generally elute earlier.
Test [7] concerns the target untagged HIV-1 integrase Y194E (HIV-1). The test is described as above.
Test [8] addresses untagged HIV-1 integrase wild type (HIV-1). The description is as above.
In test [9] the target is His6-tagged HIV-1 integrase Y194E (HIV-1). Description: AlphaScreen or HTRF; HTRF; His-IN 80 nM, GST-LEDGF/p75 or GST-TNPO3 5 nM, anti-GST-Europium Cryptate and anti-His-XL665; 25 mM Hepes pH 7.3, 150 mM NaCl, 2 mM MgCl2, 0.1% BSA, 1 mM DTT; read 2 h after incubation; signal as percent of IN WT ΔF. The source holds these as a separate data set.
Test [10] deals with His6-tagged HIV-1 integrase W131A (HIV-1). The description is as above. This is another data set of the same source.
Test [11] deals with His6-tagged HIV-1 integrase Y194F (HIV-1). The test is described as above.
The target in test [12] is His6-tagged HIV-1 integrase Q168L (HIV-1). Described as above. This is another data set of the same source.

Turning to “GST-LEDGF/p75 full length (from UniProt O75475 1-530) (natural protein)”, the percent decrease of binding against IN WT (HTRF) in test [1] is 26%; in test [2] it was 64.9%; in test [5], 27%. The percent of IN WT interaction (HTRF) was 9.3% in test [3] and 16.3% in test [4].
As a reminder, the stoichiometry N is the number of molecules, sites or subunits per partner or assembly. As to untagged HIV-1 integrase W131A (enzyme), the stoichiometry N in test [6] is 4 and 2.
Consider untagged HIV-1 integrase Y194E (enzyme), for which, in test [7], the stoichiometry N worked out at 4.
Regarding “untagged HIV-1 integrase wild type (enzyme)”, the stoichiometry N in [8] was 4 and 2.

B1: GST-TNPO3 full length (natural protein)
chain: MEGAKPTLQLVYQAVQALYHDPDPSGKERASFWLGELQRSVHAWEISDQLLQIRQDVESCYFAAQTMKMKIQTSFYELPTDSHASLRDSLLTHIQNLKDLSPVIVTQLALAIADLALQMPSWKGCVQTLVEKYSNDVTSLPFLLEILTVLPEEVHSRSLRIGANRRTEIIEDLAFYSSTVVSLLMTCVEKAGTDEKMLMKVFRCLGSWFNLGVLDSNFMANNKLLALLFEVLQQDKTSSNLHEAASDCVCSALYAIENVETNLPLAMQLFQGVLTLETAYHMAVAREDLDKVLNYCRIFTELCETFLEKIVCTPGQGLGDLRTLELLLICAGHPQYEVVEISFNFWYRLGEHLYKTNDEVIHGIFKAYIQRLLHALARHCQLEPDHEGVPEETDDFGEFRMRVSDLVKDLIFLIGSMECFAQLYSTLKEGNPPWEVTEAVLFIMAAIAKSVDPENNPTLVEVLEGVVRLPETVHTAVRYTSIELVGEMSEVVDRNPQFLDPVLGYLMKGLCEKPLASAAAKAIHNICSVCRDHMAQHFNGLLEIARSLDSFLLSPEAAVGLLKGTALVLARLPLDKITECLSELCSVQVMALKKLLSQEPSNGISSDPTVFLDRLAVIFRHTNPIVENGQTHPCQKVIQEIWPVLSETLNKHRADNRIVERCCRCLRFAVRCVGKGSAALLQPLVTQMVNVYHVHQHSCFLYLGSILVDEYGMEEGCRQGLLDMLQALCIPTFQLLEQQNGLQNHPDTVDDLFRLATRFIQRSPVTLLRSQVVIPILQWAIASTTLDHRDANCSVMRFLRDLIHTGVANDHEEDFELRKELIGQVMNQLGQQLVSQLLHTCCFCLPPYTLPDVAEVLWEIMQVDRPTFCRWLENSLKGLPKETTVGAVTVTHKQLTDFHKQVTSAEECKQVCWALRDFTRLFR
Take B1: the values for the percent decrease of binding against IN WT (HTRF) in [9] and in test [11] were 23.5% and 14.4%, respectively. Further, the percent of IN WT (HTRF) in test [10] stood at 49%; in test [12], 45%.
